Test results taken from the supplement of paper PMC11246515.
± gives the standard deviation of the averaged measurements.

Experiment: total protein half-life in vivo (active degradation + dilution); higher = more stable protein
[1] = E. coli NCM3722 delta-clpP delta-lon delta-hslV, growth: N-lim chemostat, doubling time 6 h
[2] = E. coli NCM3722 delta-hslV, growth: N-lim chemostat, doubling time 6 h
[3] = E. coli NCM3722 delta-smpB, growth: N-lim chemostat, doubling time 6 h
[4] = wild type E. coli NCM3722, growth: C-lim chemostat, doubling time 3 h
[5] = wild type E. coli NCM3722, growth: P-lim chemostat, doubling time 12 h
[6] = E. coli NCM3722 delta-clpP, growth: N-lim chemostat, doubling time 6 h
[7] = E. coli NCM3722 delta-lon, growth: N-lim chemostat, doubling time 6 h
[8] = wild type E. coli NCM3722, growth: C-lim chemostat, doubling time 6 h
[9] = wild type E. coli NCM3722, growth: C-lim chemostat, doubling time 12 h
[10] = wild type E. coli NCM3722, growth: N-lim chemostat, doubling time 6 h
[11] = wild type E. coli NCM3722, growth: N-lim chemostat, doubling time 12 h
[12] = wild type E. coli NCM3722, growth: P-lim chemostat, doubling time 6 h

| Sequence | total protein half-life in vivo [1] [h] | total protein half-life in vivo [2] [h] | total protein half-life in vivo [3] [h] | total protein half-life in vivo [4] [h] | total protein half-life in vivo [5] [h] | total protein half-life in vivo [6] [h] | total protein half-life in vivo [7] [h] | total protein half-life in vivo [8] [h] | total protein half-life in vivo [9] [h] | total protein half-life in vivo [10] [h] | total protein half-life in vivo [11] [h] | total protein half-life in vivo [12] [h] |
| --- | --- | --- | --- | --- | --- | --- | --- | --- | --- | --- | --- | --- |
| MATLTTTQTSPSLLGGVVIIGGTIIGAGMFSLPVVMSGAWFFWSMAALIFTWFCMLHSGLMILEANLNYRIGSSFDTITKDLLGKGWNVVNGISIAFVLYILTYAYISASGSILHHTFAEMSLNVPARAAGFGFALLVAFVVWLSTKAVSRMTAIVLGAKVITFFLTFGSLLGHVQPATLFNVAESNASYAPYLLMTLPFCLASFGYHGNVPSLMKYYGKDPKTIVKCLVYGTLMALALYTIWLLATMGNIPRPEFIGIAEKGGNIDVLVQALSGVLNSRSLDLLLVVFSNFAVASSFLGVTLGLFDYLADLFGFDDSAVGRLKTALLTFAPPVVGGLLFPNGFLYAIGYAGLAATIWAAIVPALLARASRKRFGSPKFRVWGGKPMIALILVFGVGNALVHILSSFNLLPVYQ [P0AAD2] | 2.1 | 0.779 | 0.897 | 1.97 ± 0.16 |  |  |  |  |  |  |  |  |
| MNNSEGLKSFQQSLADLPQWVSERLLQQINQLTNYEPVIGIMGKTGVGKSSLCNALFAGDISPVSDVAACTREPLRFRLQVGDRYITLMDLPGVGESGARDTEYAALYREQLPRLDLVLWLIKADDRALTVDEHFYHQVIGEVYRHKVLFVISQSDKAEPTSGGGQLSTAQKQNISRKICLLHELFQPVHPVCAVSVRLQWGLKVMAERMIKCLPREATSPVVSQLHPSFRTTVVREQARSDFGETVGAVLDSISAFPLIPAPVRAVIQAVRTTVVSVARAVWDFFF |  |  | 3.51 |  | 6.63 |  |  |  |  |  |  |  |
| MQRARCYLIGETAVVLELEPPVTLASQKRIWRLAQRLVDMPNVVEAIPGMNNITVILRNPESLALDAIERLQRWWEESEALEPESRFIEIPVVYGGAGGPDLAVVAAHCGLSEKQVVELHSSVEYVVWFLGFQPGFPYLGSLPEQLHTPRRAEPRLLVPAGSVGIGGPQTGVYPLATPGGWQLIGHTSLSLFDPARDEPILLRPGDSVRFVPQKEGVC [P0AAV4] | 5.48 ± 0.23 | 5.73 ± 0.79 | 4.972 ± 0.042 | 3.51 ± 0.27 |  | 5.44 ± 0.087 | 7.2 ± 0.64 | 6.26 ± 0.1 | 11.3 ± 0.43 | 5.41 ± 0.97 | 11.3 ± 0.39 | 6.04 ± 0.51 |
| MVSETKTTEAPGLRRELKARHLTMIAIGGSIGTGLFVASGATISQAGPGGALLSYMLIGLMVYFLMTSLGELAAYMPVSGSFATYGQNYVEEGFGFALGWNYWYNWAVTIAVDLVAAQLVMSWWFPDTPGWIWSALFLGVIFLLNYISVRGFGEAEYWFSLIKVTTVIVFIIVGVLMIIGIFKGAQPAGWSNWTIGEAPFAGGFAAMIGVAMIVGFSFQGTELIGIAAGESEDPAKNIPRAVRQVFWRILLFYVFAILIISLIIPYTDPSLLRNDVKDISVSPFTLVFQHAGLLSAAAVMNAVILTAVLSAGNSGMYASTRMLYTLACDGKAPRIFAKLSRGGVPRNALYATTVIAGLCFLTSMFGNQTVYLWLLNTSGMTGFIAWLGIAISHYRFRRGYVLQGHDINDLPYRSGFFPLGPIFAFILCLIITLGQNYEAFLKDTIDWGGVAATYIGIPLFLIIWFGYKLIKGTHFVRYSEMKFPQNDKK |  |  | 6.44 |  | 8.87 | > 8 | 5.36 | > 8 | > 16 | 6.92 |  | 6.22 |
| MKFIGKLLLYILIALLVAIAGLYFLLQTRWGAEHISAWVSENSDYHLAFGAMDHRFSAPSHIVLENVTFGRDGQPATLVAKSVDIALSSRQLTEPRHVDTILLENGTLNLTDQTAPLPFKADRLQLRDMAFNSPNSEWKLSAQRVNGGVVPWSPKAGKVLGTKAQIQFSAGSLSLNDVPATNVLIEGSIDNDRVTLTNLGADIARGTLTGNAQRNADGSWQVENLRMADIRLQSEKSLTDFFAPLRSVPSLQIGRLEVIDARLQGPDWAVTDLDLSLRNMTFSKDDWQTQEGKLSMNASEFIYGSLHLFDPIINTEFSPQGVALRQFTSRWEGGMVRTSGNWLRDGKTLILDDAAIAGLEYTLPKNWQQLWMETTPGWLNSLQLKRFSASRNLIIDIDPDFPWQLTALDGYGANLTLVTDHKWGVWSGSANLNAAAATFNRVDVRRPSLALTANSSTVNISELSAFTEKGILEATASVSQTPQRQTHISLNGRGVPVNILQQWGWPELPLTGDGNIQLTASGDIQANVPLKPTVSGQLHAVNAAKQQVTQTMNAGIVSSGEVTSTEPVR | 6.81 ± 0.67 | 6.19 ± 0.067 | 6.28 ± 0.42 | 3.2 ± 0.15 | 12 ± 0.2 | 6.85 ± 0.84 | 6.3 ± 0.072 | 5.9 ± 0.12 | 11.4 ± 1 | 6.16 ± 0.12 | 12.6 ± 0.84 | 6.26 ± 0.23 |
| MKNKLPPFIEIYRALIATPSISATEEALDQSNADLITLLADWFKDLGFNVEVQPVPGTRNKFNMLASIGQGAGGLLLAGHTDTVPFDDGRWTRDPFTLTEHDGKLYGLGTADMKGFFAFILDALRDVDVTKLKKPLYILATADEETSMAGARYFAETTALRPDCAIIGEPTSLQPVRAHKGHISNAIRIQGQSGHSSDPARGVNAIELMHDAIGHILQLRDNLKERYHYEAFTVPYPTLNLGHIHGGDASNRICACCELHMDIRPLPGMTLNELNGLLNDALAPVSERWPGRLTVDELHPPIPGYECPPNHQLVEVVEKLLGAKTEVVNYCTEAPFIQTLCPTLVLGPGSINQAHQPDEYLETRFIKPTRELITQVIHHFCWH | 4.97 ± 0.62 | 4.636 ± 0.017 | 4.29 ± 0.23 | 3.27 ± 0.46 | 11 ± 0.37 | 4.73 ± 0.34 | 4.68 ± 0.19 | 5.46 ± 0.24 | 10.9 ± 2.2 | 4.68 ± 0.058 | 7.38 ± 0.21 | 5.95 ± 0.067 |
